Read-outs that look alike come from different tables or passages of the source.
Key:
[1] = biological target: T1, recombinant gp120 of HIV-1 strain IIIb (HIV-1 strain IIIb, UniProt P04578 33-511); assay: SPR BIAcore, gp120 on chip;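 for Ka: fab fragments flowed at 0.5 to 10 ug/ml over immobilized gp120, resonance units tracked during association and dissociation, equilibrium constants derived from the rate constants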
T1 construct: domain: gp120; also called IIIb-derived gp120; gp 120 (IIIB strain)
Source text: In the assay, the gp120 glycoprotein, isolated from both MN (AgMed, Cambridge, Mass.) and IIIb (American Bio-Technologies) strains of HIV-1 were coated onto gold chips. […] As the mass of the gold chips increases due to the binding of the Fabs to the ligand, the refractive index of the chips increases indicating a coordinate increase in the increase of the mass. Measurements of the "on" rate are made in addition to the "off" rates, the latter of which occurs as the Fabs begin to dissociate from the ligand and the mass coordinately decreases, thereby allowing a measurement of the change of the refractive index. Briefly, the sensor chip was activated for immobilization with N-hydroxysuccinimide an N-ethyl-N'-(3-diethyl aminopropyl) carbodiimide. The proteins, MN-derived or IIIb-derived gp120, were coupled to the surface by injection of 50 ul of a 50 ug/ml sample. Excess activated esters were quenched with 15 ul ethanolamine, 1 M pH 8.5. Typically, 4000 resonance units were immobilized. Binding of Fab fragments to immobilized gp120 was studied by injection of Fab in a range of concentrations (0.5 to 10 ug/ml) at a flow rate of 5 ul/minute. The association was monitored as the increase in resonance units per unit time. Dissociation measurements were acquired following the end of the association phase but with a flow rate of 50 ul/minute. The binding surface was regenerated with HCl, 1M NaCl, pH 3 and remained active for 20–40 measurements. […] Equilibrium association and dissociation constants were deduced from the rate constants.

[2] = biological target: T1, recombinant gp120 of HIV-1 strain IIIb; assay: SPR BIAcore, gp120 on chip (summary table)
[3] = biological target: T1, recombinant gp120 of HIV-1 strain IIIb; assay: SPR BIAcore, gp120 on chip; remark: listed apart in the source;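 for Ka: fab fragments flowed at 0.5 to 10 ug/ml over immobilized gp120, resonance units tracked during association and dissociation, equilibrium constants derived from the rate constants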
[4] = biological target: T1, recombinant gp120 of HIV-1 strain IIIb; assay: SPR BIAcore, gp120 on chip; remark: listed apart in the source;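 for Ka: fab fragments flowed at 0.5 to 10 ug/ml over immobilized gp120, resonance units tracked during association and dissociation, equilibrium constants derived from the rate constants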
Source text: As the mass of the gold chips increases due to the binding of the Fabs to the ligand, the refractive index of the chips increases indicating a coordinate increase in the increase of the mass. Measurements of the "on" rate are made in addition to the "off" rates, the latter of which occurs as the Fabs begin to dissociate from the ligand and the mass coordinately decreases, thereby allowing a measurement of the change of the refractive index. Briefly, the sensor chip was activated for immobilization with N-hydroxysuccinimide an N-ethyl-N'-(3-diethyl aminopropyl) carbodiimide. The proteins, MN-derived or IIIb-derived gp120, were coupled to the surface by injection of 50 ul of a 50 ug/ml sample. Excess activated esters were quenched with 15 ul ethanolamine, 1 M pH 8.5. Typically, 4000 resonance units were immobilized. Binding of Fab fragments to immobilized gp120 was studied by injection of Fab in a range of concentrations (0.5 to 10 ug/ml) at a flow rate of 5 ul/minute. The association was monitored as the increase in resonance units per unit time. Dissociation measurements were acquired following the end of the association phase but with a flow rate of 50 ul/minute. The binding surface was regenerated with HCl, 1M NaCl, pH 3 and remained active for 20–40 measurements. […] Equilibrium association and dissociation constants were deduced from the rate constants.
The soluble composite Fabs were then analyzed for binding affinity to gp120 strain IIIB.

| Binder | Fold Increase of Mutant Kd Compared to MT4 Kd [1] | Kd [1] | Kd [2] | koff [3] | kon [3] | Fold Increase of Mutant Kd Compared to MT4 Kd [4] | Ka [4] | Kd [4] |
| --- | --- | --- | --- | --- | --- | --- | --- | --- |
| Fab QA1 (Fab, V domains shown) VH: LEQSGAEVKKPGASVKVSCQASGYRFSNFTVHWVRQAPGQRFEWMGWINPYNGNKEFSAKFQDRVTFTADTSANTAYMELRSLRSADTAVYYCARVGEWGWDDSPQDNYYMDVWGKGTTVIVSS VL: ELTQSPGTLSLSPGERATFSCRSSHQLDGSRVAWYQHKPGQAPRLVIHGVSNRASGISDRFSGSGSGTDFTLTITRVEPEDFALYYCQVYGWSQYTFGQGTKLERKR | 12.2 fold | 510 pM | 510 pM |  |  |  |  |  |
| composite Fab 4H/L42-1 (Fab, V domains shown) VH: LEQSGAEVKKPGASVKVSCQASGYRFSNFVIHWVRQAPGQRFEWMGWINPYNGNKEFSAKFQDRVTFTADTSANTAYMELRSLRSADTAVYYCARVGPYSWDDSPQDNYYMDVWGKGTTVIVSS VL: ELTQSPGTLSLSPGERATFSCRSSHQLDGSRVAWYQHKPGQAPRLVIHGVSNRASGISDRFSGSGSGTDFTLTITRVEPEDFALYYCQQYGWPFYTFGQGTKLERKR |  |  |  | 0.000615 s⁻¹ | 296000 M⁻¹ s⁻¹ | 3.02 fold | 4.81e+08 M⁻¹ | 2080 pM |
| composite Fab H103/L42-4 (Fab, V domains shown) VH: LEQSGAEVKKPGASVKVSCQASGYRFSHFTLHWVRQAPGQRFEWHGWINPYNGNKEFSAKFQDRVTFTADTSANTAYMELRSLRSADTAVYYCARVGEWGWHQRRYDNYYMDVWGKGTTVIVSS VL: ELTQSPGTLSLSPGERATFSCRSSHQLDGSRVAWYQHKPGQAPRLVIHGVSNRASGISDRFSGSGSGTDFTLTITRVEPEDFALYYCQQYGWPFYTFGQGTKLERKR |  |  | 113 pM | 9.41e-06 s⁻¹ | 81800 M⁻¹ s⁻¹ | 55.8 fold | 8.88e+09 M⁻¹ | 113 pM |
| Fab QA9 (Fab, V domains shown) VH: LEQSGAEVKKPGASVKVSCQASGYRFSNFTVHWVRQAPGQRFEWMGWINPYNGNKEFSAKFQDRVTFTADTSANTAYMELRSLRSADTAVYYCARVGEWGWDDSPQDNYYMDVWGKGTTVIVSS VL: ELTQSPGTLSLSPGERATFSCRSSHQLDGSRVAWYQHKPGQAPRLVIHGVSNRASGISDRFSGSGSGTDFTLTITRVEPEDFALYYCQMYGGFTYTFGQGTKLERKR | 10.3 fold | 610 pM | 610 pM |  |  |  |  |  |
| Fab QA8 (Fab, V domains shown) VH: LEQSGAEVKKPGASVKVSCQASGYRFSNFTVHWVRQAPGQRFEWMGWINPYNGNKEFSAKFQDRVTFTADTSANTAYMELRSLRSADTAVYYCARVGEWGWDDSPQDNYYMDVWGKGTTVIVSS VL: ELTQSPGTLSLSPGERATFSCRSSHQLDGSRVAWYQHKPGQAPRLVIHGVSNRASGISDRFSGSGSGTDFTLTITRVEPEDFALYYCQQYGDSLYTFGQGTKLERKR | 14.3 fold | 440 pM | 440 pM |  |  |  |  |  |
| Fab QA4 (Fab, V domains shown) VH: LEQSGAEVKKPGASVKVSCQASGYRFSNFTVHWVRQAPGQRFEWMGWINPYNGNKEFSAKFQDRVTFTADTSANTAYMELRSLRSADTAVYYCARVGEWGWDDSPQDNYYMDVWGKGTTVIVSS VL: ELTQSPGTLSLSPGERATFSCRSSHQLDGSRVAWYQHKPGQAPRLVIHGVSNRASGISDRFSGSGSGTDFTLTITRVEPEDFALYYCQSYGGRDYTFGQGTKLERKR | 12.6 fold | 500 pM | 500 pM |  |  |  |  |  |
| Fab QA11 (Fab, V domains shown, also called LH (its light chain)) VH: LEQSGAEVKKPGASVKVSCQASGYRFSNFTVHWVRQAPGQRFEWMGWINPYNGNKEFSAKFQDRVTFTADTSANTAYMELRSLRSADTAVYYCARVGEWGWDDSPQDNYYMDVWGKGTTVIVSS VL: ELTQSPGTLSLSPGERATFSCRSSHQLDGSRVAWYQHKPGQAPRLVIHGVSNRASGISDRFSGSGSGTDFTLTITRVEPEDFALYYCQTYGRGHYTFGQGTKLERKR | 94.4 fold | 67 pM | 67 pM |  |  |  |  |  |
| composite Fab H31/4L-14 (Fab, V domains shown) VH: LEQSGAEVKKPGASVKVSCQASGYRFSHFTVHWVRQAPGQRFEWHGWINPYNGNKEFSAKFQDRVTFTADTSANTAYMELRSLRSADTAVYYCARVGEWGWEMFRYDNYYMDVWGKGTTVIVSS VL: ELTQSPGTLSLSPGERATFSCRSSHSIRSRRVAWYQHKPGQAPRLVIHGVSNRASGISDRFSGSGSGTDFTLTITRVEPEDFALYYCQVYGASSYTFGQGTKLERKR |  |  | 22 pM | 3.39e-06 s⁻¹ | 153000 M⁻¹ s⁻¹ | 284 fold | 4.51e+10 M⁻¹ | 22.2 pM |
| Fab QA5 (Fab, V domains shown) VH: LEQSGAEVKKPGASVKVSCQASGYRFSNFTVHWVRQAPGQRFEWMGWINPYNGNKEFSAKFQDRVTFTADTSANTAYMELRSLRSADTAVYYCARVGEWGWDDSPQDNYYMDVWGKGTTVIVSS VL: ELTQSPGTLSLSPGERATFSCRSSHQLDGSRVAWYQHKPGQAPRLVIHGVSNRASGISDRFSGSGSGTDFTLTITRVEPEDFALYYCQTYGWSGYTFGQGTKLERKR | 13.7 fold | 460 pM | 460 pM |  |  |  |  |  |
| Fab QA12 (Fab, V domains shown) VH: LEQSGAEVKKPGASVKVSCQASGYRFSNFTVHWVRQAPGQRFEWMGWINPYNGNKEFSAKFQDRVTFTADTSANTAYMELRSLRSADTAVYYCARVGEWGWDDSPQDNYYMDVWGKGTTVIVSS VL: ELTQSPGTLSLSPGERATFSCRSSHQLDGSRVAWYQHKPGQAPRLVIHGVSNRASGISDRFSGSGSGTDFTLTITRVEPEDFALYYCQTYGRGIYTFGQGTKLERKR | 48.6 fold | 130 pM | 130 pM |  |  |  |  |  |
| Fab QA10 (Fab, V domains shown) VH: LEQSGAEVKKPGASVKVSCQASGYRFSNFTVHWVRQAPGQRFEWMGWINPYNGNKEFSAKFQDRVTFTADTSANTAYMELRSLRSADTAVYYCARVGEWGWDDSPQDNYYMDVWGKGTTVIVSS VL: ELTQSPGTLSLSPGERATFSCRSSHQLDGSRVAWYQHKPGQAPRLVIHGVSNRASGISDRFSGSGSGTDFTLTITRVEPEDFALYYCQTYGRGSYTFGQGTKLERKR | 85.9 fold | 74 pM | 74 pM |  |  |  |  |  |
| composite Fab H101/4L-1 (Fab, V domains shown) VH: LEQSGAEVKKPGASVKVSCQASGYRFSHFTVHWVRQAPGQRFEWHGWINPYNGNKEFSAKFQDRVTFTADTSANTAYMELRSLRSADTAVYYCARVGEWGWHQRRYDNYYMDVWGKGTTVIVSS VL: ELTQSPGTLSLSPGERATFSCRSSHSIRSRRVAWYQHKPGQAPRLVIHGVSNRASGISDRFSGSGSGTDFTLTITRVEPEDFALYYCQVYGASSYTFGQGTKLERKR |  |  | 380 pM | 3.39e-05 s⁻¹ | 893000 M⁻¹ s⁻¹ | 16.6 fold | 2.63e+09 M⁻¹ | 380 pM |
| Fab QA2 (Fab, V domains shown) VH: LEQSGAEVKKPGASVKVSCQASGYRFSNFTVHWVRQAPGQRFEWMGWINPYNGNKEFSAKFQDRVTFTADTSANTAYMELRSLRSADTAVYYCARVGEWGWDDSPQDNYYMDVWGKGTTVIVSS VL: ELTQSPGTLSLSPGERATFSCRSSHQLDGSRVAWYQHKPGQAPRLVIHGVSNRASGISDRFSGSGSGTDFTLTITRVEPEDFALYYCQLYGRGNYTFGQGTKLERKR | 14.9 fold | 420 pM | 420 pM |  |  |  |  |  |
